# Assay results reported in IntAct's records for PubMed 29039417.
# B1: Isoform 2 of Bardet-Biedl syndrome 7 protein (Homo sapiens), Q8IWZ6-2 (parent)
# chain: MDLILNRMDYLQVGVTSQKTMKLIPASRHRATQKVVIGDHDGVVMCFGMKKGEAAAVFKTLPGPKIARLELGGVINTPQEKIFIAAASEIRGFTKRGKQFLSFETNLTESIKAMHISGSDLFLSASYIYNHYCDCKDQHYYLSGDKINDVICLPVERLSRITPVLACQDRVLRVLQGSDVMYAVEVPGPPTVLALHNGNGGDSGEDLLFGTSDGKLALIQITTSKPVRKWEIQNEKKRGGILCIDSFDIVGDGVKDLLVGRDDGMVEVYSFDNANEPVLRFDQMLSESVTSIQGGCVGKDSYDEIVVSTYSGWVTGLTTEPIHKESGPGEELKINQEMQNKISSLRNELEHLQYKVLQERENYQQSSQSSKAKSAVPSFGINDKFTLNKDDASYSLILEVQTAIDNVLIQSDVPIDLLDVDKNSAVVSFSSCDSESNDNFLLATYRCQADTTRLELKIRSIEGQYGTLQAYVTPRIQPKTCQVRQYHIKPLSLHQRTHFIDHDRPMNTLTLTGQFSFAEVHSWVVFCLPEVPEKPPAGECVTFYFQNTFLDTQLESTYRKGEGVFKSDNISTISILKDVLSKEATKRKINLNISYEINEVSVKHTLKLIHPKLEYQLLLAKKVQLIDALKELQIHEGNTNFLIPEYHCILEEADHLQEEYKKQPAHLERLYG
# partner: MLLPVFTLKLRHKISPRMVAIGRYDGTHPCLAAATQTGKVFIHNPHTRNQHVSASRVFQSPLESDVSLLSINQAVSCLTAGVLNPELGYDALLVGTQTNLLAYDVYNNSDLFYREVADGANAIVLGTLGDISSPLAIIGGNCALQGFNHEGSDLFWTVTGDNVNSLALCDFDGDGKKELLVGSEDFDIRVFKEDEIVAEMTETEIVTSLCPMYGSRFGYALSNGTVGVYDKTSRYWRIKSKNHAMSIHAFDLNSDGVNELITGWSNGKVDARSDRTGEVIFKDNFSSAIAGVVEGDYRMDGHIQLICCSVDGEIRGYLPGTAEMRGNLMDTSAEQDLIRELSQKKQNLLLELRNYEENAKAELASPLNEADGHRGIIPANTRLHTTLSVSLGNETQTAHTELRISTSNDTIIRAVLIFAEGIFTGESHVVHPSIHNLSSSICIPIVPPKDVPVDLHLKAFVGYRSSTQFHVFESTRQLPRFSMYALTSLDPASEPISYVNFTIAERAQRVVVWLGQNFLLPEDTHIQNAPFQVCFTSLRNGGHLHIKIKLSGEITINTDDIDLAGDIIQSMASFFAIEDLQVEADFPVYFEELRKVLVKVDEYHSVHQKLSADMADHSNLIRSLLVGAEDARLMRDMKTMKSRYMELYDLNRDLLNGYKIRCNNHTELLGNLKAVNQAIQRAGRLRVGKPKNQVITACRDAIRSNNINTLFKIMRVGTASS
# Variants of: B1
# Conditions: with bbs2_human BBS2, Q9BXC9
row,Variant,effect of a mutation on the interaction
1,P377K,with no effect
2,F517A,with no effect
3,Q410A,with no effect
4,T467K,with no effect
5,Q353K,with no effect
6,L357E,with no effect
7,D383E,with no effect
8,A449T,disrupting interaction strength
9,A449E,with no effect
10,N507K,with no effect
11,Q364E,with no effect
12,Q358K,with no effect
13,Y354K,with no effect
14,T451K,with no effect
15,H487A,with no effect
16,L349A,with no effect
17,L442K,with no effect
18,G513H,disrupting interaction strength
19,G513Y,disrupting interaction strength
20,G513K,with no effect
21,G513S,disrupting interaction strength
22,P328A,with no effect

row,Variant,effect of a mutation on the interaction
1,P328E,with no effect
2,P328K,with no effect
3,G327E,with no effect
4,G327A,with no effect
5,R360A,with no effect
6,A375K,with no effect
7,I342K,with no effect
8,I342E,with no effect
9,V356A,disrupting interaction strength
10,T508K,with no effect
11,I404K,with no effect
12,S369K,with no effect
13,T512K,with no effect
14,S370E,with no effect
15,R504A,with no effect
16,F385E,with no effect
17,A425E,with no effect
18,S516K,with no effect
19,I334E,with no effect
20,Q336K,with no effect
21,Q448K,disrupting interaction strength
22,S374K,with no effect

row,Variant,effect of a mutation on the interaction
1,I415A,with no effect
2,K341A,with no effect
3,S430E,with no effect
4,N406E,with no effect
5,H502E,with no effect
6,N347E,with no effect
7,N437A,with no effect
8,S366A,with no effect
9,R496K,with no effect
10,P505K,with no effect
11,Q495K,with no effect
12,K355A,with no effect
13,P478E,with no effect
14,T386K,with no effect
15,L352E,with no effect
16,L441K,with no effect
17,S492A,with no effect
18,Q469A,disrupting interaction strength
19,Q469E,with no effect
20,F429E,with no effect
21,Y445E,with no effect
22,F379K,with no effect

row,Variant,effect of a mutation on the interaction
1,F379A,with no effect
2,D416A,with no effect
3,D416E,with no effect
4,D416K,with no effect
5,Q485K,with no effect
6,L511A,with no effect
7,I476A,disrupting interaction strength
8,P414E,with no effect
9,K457A,with no effect
10,L408A,with no effect
11,A372E,with no effect
12,K373E,with no effect
13,K373A,with no effect
14,Q368A,with no effect
15,Q368E,with no effect
16,P490E,with no effect
17,P490A,with no effect
18,S411E,with no effect
19,E350A,with no effect
20,E350K,with no effect
21,L454K,with no effect
22,D405E,with no effect

row,Variant,effect of a mutation on the interaction
1,R459E,with no effect
2,R459K,with no effect
3,C432A,with no effect
4,Y486K,with no effect
5,T473A,with no effect
6,T510E,with no effect
7,E455A,with no effect
8,F499K,with no effect
9,F499A,with no effect
10,H521E,with no effect
11,H521K,with no effect
12,D503A,with no effect
13,D433A,with no effect
14,E330A,with no effect
15,V426K,with no effect
16,T444K,with no effect
17,R475E,with no effect
18,K371E,with no effect
19,E359A,with no effect

# Now from value to variant:
row,effect of a mutation on the interaction,Variant
1,with no effect,L613K
2,with no effect,S556E
3,with no effect,V600E
4,disrupting interaction strength,G561S
5,with no effect,G561K
6,with no effect,V524E
7,with no effect,D551E
8,with no effect,D551K
9,with no effect,D551A
10,with no effect,C648A
11,with no effect,C648K
12,with no effect,C648E
13,disrupting interaction strength,Q616D
14,with no effect,Q616K
15,with no effect,R559A
16,with no effect,E658K
17,with no effect,E631K
18,with no effect,E631A
19,with no effect,A665K
20,with no effect,A665E
21,with no effect,V541A
22,with no effect,V541E
23,with no effect,L617E
24,with no effect,F545E
25,with no effect,T639E

row,effect of a mutation on the interaction,Variant
1,with no effect,L550A
2,with no effect,K582A
3,disrupting interaction strength,W523A
4,with no effect,A653E
5,with no effect,Y544A
6,with no effect,H655A
7,with no effect,E539K
8,with no effect,V623E
9,with no effect,E651A
10,with no effect,E652A
11,with no effect,G637E
12,with no effect,F641A
13,with no effect,N638A
14,with no effect,S601K
15,with no effect,E668A
16,with no effect,L625A
17,with no effect,H610E
18,with no effect,I609A
19,with no effect,I609K
20,disrupting interaction strength,G563R
21,with no effect,G563K
22,with no effect,L528A
23,with no effect,Q624K
24,with no effect,Q624A
25,with no effect,Q553A

row,effect of a mutation on the interaction,Variant
1,with no effect,L670K
2,with no effect,S581A
3,with no effect,S581K
4,with no effect,P536E
5,with no effect,S574K
6,with no effect,K566A
7,with no effect,K607E
8,with no effect,K607A
9,with no effect,L606K
10,with no effect,V564K
11,with no effect,V564A
12,with no effect,G672E
13,with no effect,L642E
14,with no effect,E596A
15,with no effect,A584E
16,disrupting interaction strength,I570L
17,with no effect,V602A
18,with no effect,I626E
19,with no effect,Y660K
20,with no effect,D627K
21,with no effect,L576K
22,with no effect,I649A
23,with no effect,P532A
24,with no effect,K588E
25,with no effect,S594K
